T1: ApoE4 amino acids 24-125, expressed on yeast (human, UniProt P02649 42-143)
T1 construct: with myc tag, on yeast cells; range counts on the mature protein; also called helix1 + 2 + 3
T1 chain: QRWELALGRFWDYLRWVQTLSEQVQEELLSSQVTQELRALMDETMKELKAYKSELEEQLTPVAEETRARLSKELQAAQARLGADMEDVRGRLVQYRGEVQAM

T2: ApoE4 amino acids 1-132, expressed on yeast (human, UniProt P02649 19-150)
T2 construct: with myc tag, on yeast cells; range counts on the mature protein; also called up to helix 3; not shown: myc tag and yeast surface-display partner
T2 chain: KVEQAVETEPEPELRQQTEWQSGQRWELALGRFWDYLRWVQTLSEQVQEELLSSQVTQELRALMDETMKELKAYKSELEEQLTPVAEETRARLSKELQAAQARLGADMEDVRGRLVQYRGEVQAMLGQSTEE

T3: murine ApoE (mouse, UniProt P08226 19-311)
T3 sequence (looked up): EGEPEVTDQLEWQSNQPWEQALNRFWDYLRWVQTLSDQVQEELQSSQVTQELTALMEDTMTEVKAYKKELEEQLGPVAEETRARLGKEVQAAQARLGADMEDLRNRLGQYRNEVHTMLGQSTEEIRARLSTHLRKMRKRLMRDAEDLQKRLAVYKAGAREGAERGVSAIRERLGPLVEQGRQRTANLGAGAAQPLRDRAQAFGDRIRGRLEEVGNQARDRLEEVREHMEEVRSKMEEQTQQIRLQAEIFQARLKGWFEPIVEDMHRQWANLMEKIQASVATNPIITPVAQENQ


Key:
[1] = target: T4, recombinant alipidated human ApoE3 (human, UniProt P02649 19-317); experiment: direct ELISA on coated recombinant alipidated ApoE (0.5 ug/ml)
T4 construct: mature; full length recombinant protein made in E. coli or bought
Outline: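 Antibody dose-response curves were built by HRP-conjugated goat anti-mouse IgG detection of anti-ApoE antibodies bound to blocked plates. The coat was full-length alipidated recombinant ApoE at 0.5 μg/ml, applied overnight, either E. coli-expressed and purified or commercially sourced.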

[2] = target: T1, ApoE4 amino acids 24-125, expressed on …; experiment: yeast display of myc-tagged ApoE4 fragment, antibody staining
[3] = target: T2, ApoE4 amino acids 1-132, expressed on …; experiment: as above
[4] = target: T5, heat-induced aggregates of ApoE4 (human, UniProt P02649 19-317); experiment: ELISA: pellet of heat-aggregated ApoE4 coated at 0.5 ug/ml, antibody titrated, HRP goat anti-mouse IgG, OD650
T5 construct: mature; aggregated state of the recombinant protein; also called ApoE4 incubated at 40 C for 24 hr; heat-treated ApoE4
Method: (§1) The aggregated ApoE was induced by incubating ApoE at 1 mg/ml concentration at 40° C. for 24 hours. The aggregates then were recovered in the pellet fraction following ultracentrifugation at 186,000 g for 1 hour. For ELISA, the untreated ApoE or heat-induced aggregates of ApoE were coated directly to ELISA plates at 0.5 μg/ml overnight at 4° C. After three washes with PBS, the wells were blocked with 1% BSA-PBS for 1 hour at room temperature with shaking at 500 rpm. The blocked wells were washed once with PBS and subsequently loaded with antibodies at serial concentrations (starting at 100 nM with 5-fold dilutions thereafter). Bound antibodies were detected with HRP-labeled goat anti-mouse IgG (Jackson Immunoresearch) and visualized with TMB substrate at OD₆₅₀ (reaction stopped with BioFX stop solution).

[5] = target: T6, heat-induced aggregates of ApoE3 (human, UniProt P02649 19-317); experiment: ELISA: pellet of heat-aggregated ApoE3 coated at 0.5 ug/ml, antibody titrated, HRP goat anti-mouse IgG, OD650
T6 construct: mature; aggregated state of the recombinant protein; also called heat treated ApoE3
Method: as §1

murine ApoE = target: T3, murine ApoE; experiment: not described
[6] = target: T7, recombinant alipidated human ApoE4 (human, UniProt P02649 19-317); experiment: SPR, biotinylated recombinant apoE4 captured on a streptavidin chip; column Apparent KD (M)
T7 construct: mature; full length recombinant protein made in E. coli or bought; biotinylated for SPR; position 112 is counted on the mature protein, not on the precursor entry; also called recApoE; non-lipidated ApoE4
Method: (§2) ELISA plates were coated with 0.5 μg/ml of recombinant apoE2 (square), apoE3 (open circle), or apoE4 (closed circle). Then different concentrations of (A) HJ151, (B) HJ153, (C) HJ154, or (D) HJ156 were loaded on the plates. Horse-radish peroxidase labeled goat anti-mouse secondary antibodies were used to detect binding. […] HJ151 is specific for ApoE4 and HJ156 binds only ApoE3 and ApoE4. FIG. 5E-H are graphs depicting surface plasmon resonance profiles for various antibodies. Anti-ApoE antibodies were serially diluted 3-fold (starting at 100 nM for HJ153 (E), and 1000 nM for HJ151 (F), and […] (G)) for detection of binding to biotinylated-recombinant apoE4 captured on a streptavidin chip. Samples were injected at a flow rate of 30 μl/minute. (H) Apparent KD values of HJ151, HJ153 and HJ156 were calculated based on the SPR experiment.
(§3) ELISA plates were coated with 0.5 μg/ml of recombinant apoE2, apoE3, or apoE4. Then different concentrations of HJ151 (FIG. 5A), HJ153 (FIG. 5B), HJ154 (FIG. 5C), or HJ156 (FIG. 5D) were loaded on the plates. Horse-radish peroxidase labeled goat anti-mouse secondary antibodies were used to detect binding. […] HJ151 is specific for ApoE4 and HJ156 binds only ApoE3 and ApoE4. Surface plasmon resonance profiles for various antibodies was also performed.

[7] = target: T7, recombinant alipidated human ApoE4; experiment: SPR, biotinylated recombinant apoE4 captured on a streptavidin chip; column Ka (1/Ms)
Method: as §2, §3

[8] = target: T7, recombinant alipidated human ApoE4; experiment: SPR, biotinylated recombinant apoE4 captured on a streptavidin chip; column Kd (1/s)
Method: as §2, §3

T7 sequence (P02649 19-317 C130R): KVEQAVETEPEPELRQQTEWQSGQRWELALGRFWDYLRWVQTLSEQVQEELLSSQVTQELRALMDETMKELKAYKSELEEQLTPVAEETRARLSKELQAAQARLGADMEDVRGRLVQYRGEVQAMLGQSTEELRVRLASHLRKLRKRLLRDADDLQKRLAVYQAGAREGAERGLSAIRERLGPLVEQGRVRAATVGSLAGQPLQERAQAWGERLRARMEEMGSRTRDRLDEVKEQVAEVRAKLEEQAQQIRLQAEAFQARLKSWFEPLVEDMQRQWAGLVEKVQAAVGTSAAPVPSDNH
T4 sequence (P02649 19-317): as the sequence (P02649 19-317 C130R) above, with R112C counted along it
T6 sequence (P02649 19-317): as the sequence (P02649 19-317 C130R) above, with R112C counted along it

EC50 [1] | binding result [2] | binding result [3] | EC50 (read off the curve) [4] | EC50 (read off the curve) [5] | binding result (murine ApoE) | Kd [6] | kon [7] | koff [8] | Binder
0.24 nM | binds | binds | ~0.3 nM | 0.16 to 0.2 nM | – | – | – | – | HJ154 (antibody, V domains shown, murine monoclonal antibody from hybridoma; also called HJ154B (biotinylated)) VH: QVQLQQPGTEFVMSGASVMLSCKASGYIFTNYWLHWVKQRPGHGLEWIGEIDPSDSYSICNDNFKGKSTLTVDKSSSTAYMQLSSLTSEDSAVYYCAGSLGRVGLAYWGQGTLVTVST VL: QIVLTQSPAIMSASPGEKVTMSCSASSSVSNMYWYQQKPGSSPKSWIYRTSNLASGVPARFSGSGSGTSYSLTISNMEAEDAATYYCQHYQNYPLTFGAGTKLELKR
– | binds | binds | ~0.3 nM | – | no binding | 60.2 nM | 19700 M⁻¹ s⁻¹ | 0.00119 s⁻¹ | HJ151 (antibody, V domains shown, murine monoclonal antibody from hybridoma; also called HJ151B (biotinylated)) VH: QVQLQQSGAELVRPGASVTLSCKASGYTFTDYEMHWVKQTPVHGLEWIGVIDPEKGGTAYNQKFKGKAILTADKSSSTAYMDLRSLTSEDSAVYYCLKDSWGQGTTLTVSS VL: DVLMTQTPLSLPVSLGDQASISCRSSQTIVHSDGNTYLEWYLQKPGQSPKLLIYKVSNRFSGVPDRFSGSGSGTYFTLKISRVEAEDLGVYYCFQGSHVPCTFGGGTKLEIKR
1.69 nM | – | – | ~0.07 nM | ~0.09 nM | no binding | 198 nM | 26400 M⁻¹ s⁻¹ | 0.00523 s⁻¹ | HJ156 (antibody, V domains shown, murine monoclonal antibody from hybridoma; also called HJ156B (biotinylated)) VH: QVQLQQSGPELVKPGASVKISCKASGYIFTDYYINWVKRRPGQGLEWIGWIFPGSGVSYYNEQFKGKATLTVDKPSNTAYIFLSRLTSEDSAVYFCARYYSSSPFAYWGQGTLVTVSA VL: DVLMTQTPLSLPVSLGDQASISCRSSQNIIHSNGNTYLEWFLQRPGQSPELLIYKVSNRFSGVPDRFSGSGSGTDFTLKISRVEAEDLGVYYCFQGSHVPYTFGGGTKLEIKR

Source: patent US20250145697A1 (WASHINGTON UNIVERSITY, published 2025)
